Laboratory results published in the supplement of paper PMC10567573.

B1: RHOBTB3 (parent)
chain: QLQSMPSRELASMNLDIVDLLKKA

Variants of: B1
Test: protein stability index of a GFP-peptide fusion (GPS, HEK-293T) (PSI 1-6); higher = more stable
Conditions: c terminus: a fixed tail appended
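Further: lentivirally expressed fusions sorted by FACS into six bins by GFP to DsRed ratio, PSI derived from sequencing read proportions per bin multiplied by bin number.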

In order of falling protein stability index:
1. QLQSMPSRELASMNLDIVDLLEKA [K22E]  4.71
2. QLQSMPSRELASMNLDIVDLDKKA [L21D]  4.67
3. QLQSMPSRELASMNLDQVDLLKKA [I17Q]  4.55
4. QLQSMPSRELASMNPDIVDLLKKA [L15P]  4.48
5. QLQSMPSRELASMNKDIVDLLKKA [L15K]  4.45
6. QLQSMPSRELASMNLDSVDLLKKA [I17S]  4.37
7. QLQSMPSRELASMNLDIVDLHKKA [L21H]  4.33
8. QLQSMPSRELASMNLDIVDLLDKA [K22D]  4.32
9. QLQSMPSRELASMNCDIVDLLKKA [L15C]  4.27
10. QLQSMPSRELASMNLDIVDLLNKA [K22N]  4.23
11. QLQSMPSRELASMNLDDVDLLKKA [I17D]  4.23
12. QLQSMPSRELASMNTDIVDLLKKA [L15T]  4.17
13. QLQSMPSRELASMNLDIVDLSKKA [L21S]  4.12
14. QLQSMPSRELASMNLDIVDLVKKA [L21V]  4.12
15. QLQSMPSRELASMNLDIVDLMKKA [L21M]  4.02
16. QLQSMPSRELASMNGDIVDLLKKA [L15G]  3.99
17. QLQSMPSRELASMNHDIVDLLKKA [L15H]  3.98
18. QLQSMPSRELASMNLDHVDLLKKA [I17H]  3.94
19. QLQSMPSRELASMNEDIVDLLKKA [L15E]  3.94
20. QLQSMPSRELASMNLDIVDLLQKA [K22Q]  3.93
21. QLQSMPSRELASMNLDIVDLRKKA [L21R]  3.93
22. QLQSMPSRELASMDLDIVDLLKKA [N14D]  3.92
23. QLQSMPSRELASMNLDIVDLGKKA [L21G]  3.91
24. QLQSMPSRELASMNLDVVDLLKKA [I17V]  3.89
25. QLQSMPSRELASMNLDNVDLLKKA [I17N]  3.88
26. QLQSMPSRELASMNLDCVDLLKKA [I17C]  3.87
27. QLQSMPSRELASMNYDIVDLLKKA [L15Y]  3.87
28. QLQSMPSRELASMNLDIVDLQKKA [L21Q]  3.87
29. QLQSMPSRELASMNMDIVDLLKKA [L15M]  3.86
30. QLQSMPSRELASMNLDIVDLPKKA [L21P]  3.84
31. QLQSMPSRELASMNSDIVDLLKKA [L15S]  3.79
32. QLQSMPSRELASMPLDIVDLLKKA [N14P]  3.78
33. QLQSMPSRELASMNLDIVDLLGKA [K22G]  3.75
34. QLQSMPSRELASMKLDIVDLLKKA [N14K]  3.75
35. QLQSMPSRELASMNLDIVDLLTKA [K22T]  3.74
36. QLQSMPSRELASMNLDYVDLLKKA [I17Y]  3.74
37. QLQSMPSRELASMNLDIVDLTKKA [L21T]  3.74
38. QLQSMPSRELASMNQDIVDLLKKA [L15Q]  3.72
39. QLQSMPSRELASVNLDIVDLLKKA [M13V]  3.7
40. QLQSMPSRELASMGLDIVDLLKKA [N14G]  3.68
41. QLQSMPSRELASMNADIVDLLKKA [L15A]  3.67
42. QLQSMPSRELASMNIDIVDLLKKA [L15I]  3.66
43. QLQSMPSRELASMNLDFVDLLKKA [I17F]  3.63
44. QLQSMPSRELASMNLDAVDLLKKA [I17A]  3.63
45. QLQSMPSRELASMELDIVDLLKKA [N14E]  3.62
46. QLQSMPSRELASMNLDTVDLLKKA [I17T]  3.58
47. QLQSMPSRELASMNRDIVDLLKKA [L15R]  3.58
48. QLQSMPSRELASMNLDIVDLLPKA [K22P]  3.57
49. QLQSMPSRELASMNLDIVDLIKKA [L21I]  3.56
50. QLQSMPSRELASMNLDIVDLLSKA [K22S]  3.55
51. QLQSMPSRELASMNLDIVDLCKKA [L21C]  3.47
52. QLQSMPSRELASMNLDIVDLAKKA [L21A]  3.47
53. QLQSMPSRELASMNLDGVDLLKKA [I17G]  3.46
54. QLQSMPSRELASMNLDWVDLLKKA [I17W]  3.45
55. QLQSMPSRELASMNNDIVDLLKKA [L15N]  3.45
56. QLQSMPSRELASMNFDIVDLLKKA [L15F]  3.44
57. QLQSMPSRELASMNLDRVDLLKKA [I17R]  3.4
58. QLQSMPSRELASMNLDMVDLLKKA [I17M]  3.39
59. QLQSMPSRELASMNLDPVDLLKKA [I17P]  3.39
60. QLQSMPSRELASMNVDIVDLLKKA [L15V]  3.35
61. QLQSMPSRELASMNLDIVDLWKKA [L21W]  3.35
62. QLQSMPSRELASMNLDLVDLLKKA [I17L]  3.34
63. QLQSMPSRELASMSLDIVDLLKKA [N14S]  3.31
64. QLQSMPSRELASMQLDIVDLLKKA [N14Q]  3.3
65. QLQSMPSRELASMTLDIVDLLKKA [N14T]  3.27
66. QLQSMPSRELASMNLDIVDLNKKA [L21N]  3.27
67. QLQSMPSRELASMNLDKVDLLKKA [I17K]  3.23
68. QLQSMPSRELASMNDDIVDLLKKA [L15D]  3.23
69. QLQSMPSRELASMNLDIVDLLRKA [K22R]  3.21
70. QLQSMPSRELASYNLDIVDLLKKA [M13Y]  3.17
71. QLQSMPSRELASMNLDIVDLLAKA [K22A]  3.01
72. QLQSMPSRELASMHLDIVDLLKKA [N14H]  3.01
73. QLQSMPSRELASMNLDIVDLKKKA [L21K]  3.01
74. QLQSMPSRELASMNLDIVDLFKKA [L21F]  3
75. QLQSMPSRELASMNLDIVDLYKKA [L21Y]  2.96
76. QLQSMPSRELASMNLDIVDLLMKA [K22M]  2.9
77. QLQSMPSRELASMNWDIVDLLKKA [L15W]  2.88
78. QLQSMPSRELASWNLDIVDLLKKA [M13W]  2.88
79. QLQSMPSRELASMALDIVDLLKKA [N14A]  2.87
80. QLQSMPSRELASMYLDIVDLLKKA [N14Y]  2.68
81. QLQSMPSRELASMMLDIVDLLKKA [N14M]  2.63
82. QLQSMPSRELASMNLDIVDLLYKA [K22Y]  2.61
83. QLQSMPSRELASMILDIVDLLKKA [N14I]  2.61
84. QLQSMPSRELASMLLDIVDLLKKA [N14L]  2.6
85. QLQSMPSRELASMRLDIVDLLKKA [N14R]  2.58
86. QLQSMPSRELASMWLDIVDLLKKA [N14W]  2.37
87. QLQSMPSRELASMNLDIVDLLIKA [K22I]  2.32
88. QLQSMPSRELASMNLDIVDLLFKA [K22F]  2.29
89. QLQSMPSRELASMCLDIVDLLKKA [N14C]  2.16
90. QLQSMPSRELASMNLDIVDLLVKA [K22V]  2.15
91. QLQSMPSRELASMNLDIVDLLLKA [K22L]  2.07
92. QLQSMPSRELASMNLDIVDLLWKA [K22W]  2.04
93. QLQSMPSRELASMVLDIVDLLKKA [N14V]  1.9
94. QLQSMPSRELASMFLDIVDLLKKA [N14F]  1.79
